From publication PMC5684232
Several values for one entry are separate records, joined by “and”; a condition that tells them apart may be missing. Equal entries are not always repeated.

Key:
[1] = target: human proteasome α7 subunit, wild type (self-assembled homo-tetradecamer) (human) (UniProt P25788); test: high-speed atomic force microscopy (HS-AFM); α7 adsorbed on APTES-mica, α6 added to the observation buffer to 1 μM; 20 mM Tris-HCl (pH 8.0), 150 mM NaCl; more than 20 min after the addition of α6; 10 fps, at most 1000 frames (100 s)
[2] = target: human proteasome α7 subunit, wild type (self-assembled homo-tetradecamer) (human) (UniProt P25788); test: high-speed atomic force microscopy (HS-AFM); α7 alone adsorbed on bare mica; 20 mM Tris-HCl (pH 8.0), 150 mM NaCl; tapping mode
[3] = target: human proteasome α7 subunit, wild type (self-assembled homo-tetradecamer) (human) (UniProt P25788); test: high-speed atomic force microscopy (HS-AFM); α7 alone adsorbed on APTES-mica; 20 mM Tris-HCl (pH 8.0), 150 mM NaCl; tapping mode

| Substance | dwell time of the bound state [1] [s] | percent of oligomers seen as double rings [2] [%] | percent of oligomers seen as double rings [3] [%] | stoichiometry N [3] |
| --- | --- | --- | --- | --- |
| human proteasome α6 subunit, short isoform (from UniProt P25786 1-263) (natural protein) | > 100 | – | – | – |
| human proteasome α7 subunit, wild type (self-assembled homo-tetradecamer) (from UniProt P25788 1-255) (natural protein) | – | 67 | 21 | 14 and 7 |
